From patent US20210347908A1 (ELPISCIENCE SUZHOU BIOPHARMA, published 2021) come the findings set out here.

Changes are numbered by the printed parent chain. Where two headings read alike, the source gives them in different places.

Assay [1] addresses T1, Fc tagged human SIRPγ ECD recombinant protein (human, UniProt Q9P1W8 29-360).
T1 construct: range 1-360; cloned range includes the signal peptide; also called hSIRPγ; not shown: human IgG Fc region (hFc) of the pCPC vector
Nature of the assay: ELISA. The gist of the method:
(§1)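 Fc-tagged human SIRP ECD proteins were coated on plates and incubated with purified antibodies at 37 °C for 1 h, then with HRP anti-mouse or anti-human IgG at 37 °C for 1 h. TMB was developed 15 min at room temperature and stopped with 1N HCl. EC₅₀ was calculated from OD 450 nm.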
(In an ELISA, binding on a coated surface is turned into a signal by an enzyme label.)

Assay [2] has as its target T1, Fc tagged human SIRPγ ECD recombinant …. Nature of the assay: ELISA. The gist of the method: as §1
This is another data set of the same source.

Assay [3] shares this target. Put plainly: ELISA. The gist of the method: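 OD 450 nm readings gave EC₅₀ values after a TMB reaction of 15 min at room temperature, stopped with 1N HCl. Before that, antibodies were bound to antigen-coated wells for 1 h at 37° C. An HRP-labelled anti-mouse or anti-human IgG secondary was then applied for a further 1 h at 37° C.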
This is another data set of the same source.

For assay [4] the target is unchanged. Put plainly: competitive ELISA, biotin-CD47 ECD to coated SIRPγ ECD. As to the method: For CD47 and SIRPγ interaction blocking activity detection, antibody and biotin labeled soluble human CD47 ECD recombinant protein were co-incubated with ELISA microplate coated human SIRPγ ECD recombinant protein. After washing, horseradish peroxidase labeled streptavidin (HRP-SA, Sigma) was added and incubated at 37° C. for 1 hour. Then, 100 μl/well of TMB solution (Biotechnology) was added. After incubation for 15 minutes at room temperature, the reaction was stopped by the addition of 50 μl of 1N HCl. OD 450 nm was read. Blocking ratio and IC₅₀ was calculated. In comparison with other known anti-SIRPα antibodies, 022, 050, 055, and 074 cannot block CD47 and SIRPα interaction. In particular, all of the antibodies of the invention cannot block CD47 and SIRPγ interaction.

Assay [5] concerns the target T2, 6×His tagged human SIRPα v8 ECD recombinant protein (human).
T2 construct: extracellular domain; bought; also called hSIRPα V8
Nature of the assay: ELISA.

The target of assay [6] is T3, Fc tagged human SIRPα v1 ECD recombinant protein (human, UniProt P78324 31-370).
T3 construct: range 1-370; cloned range M1-R370 includes the signal peptide; also called hSIRPα V1; not shown: human IgG Fc region (hFc) of the pCPC vector
Put plainly: ELISA.

Assay [7] concerns the target T1, Fc tagged human SIRPγ ECD recombinant …. Put plainly: ELISA. This is another data set of the same source.
The target in assay [8] is T4, Fc tagged human SIRPβ ECD recombinant protein (human, UniProt O00241 30-371).
T4 construct: range 1-371; cloned range includes the signal peptide; also called hSIRPβ; not shown: human IgG Fc region (hFc) of the pCPC vector
Nature of the assay: ELISA.

In assay [9] the target is T5, Fc tagged human SIRPα v2 ECD recombinant protein (human).
T5 construct: range 1-369; cloned range M1-R369 includes the signal peptide; also called hSIRPα V2
Nature of the assay: ELISA.

Assay [10] has as its target T6, 6×His tagged human SIRPα v2 ECD recombinant protein (human). Put plainly: SPR (Biacore). For orientation: SPR reads the build-up and loss of mass on a sensor chip optically.
Assay [11] deals with T7, full length human SIRPα v1 stably expressed on CHOK1 cells (human, UniProt P78324 31-504).
T7 construct: whole, on cells; also called CHOK1-human SIRPα v1-1B4 cells; CHOK1-human SIRPα v1
Put plainly: FACS on CHOK1-human SIRPα v1-1B4 cells. As to the method:
Species cross reactivity of the purified hybridoma antibodies against human, cyno and mouse SIRPα was determined by FACS assay using CHOK1-human SIRPα v1-1B4 cells, CHOK1-cyno SIRPα-2A2 cells, and CHOK1-C57BL/6 mouse SIRPα-2.22 cells, which stably expressing SIRPα protein. Briefly the antibodies were incubated with 2×10⁵ target cells at 4° C. for 1 hour. After washing, fluorescence labeled anti-mouse or anti-human IgG 2nd antibody (Life Technologies) was added and incubated at 4° C. for 1 hour. Geometric median fluorescence intensity was detected and EC₅₀ was calculated. In particular, it is noted, in contrast to the other antibodies tested in the same experiment, 060 cannot bind with cyno SIRPα and 035 has cross reactivity against C57BL/6 mouse SIRPα.
(§2) hu035.01, the first version of humanized 035, was characterized by FACS assay using CHOK1-human SIRPα v1-1B4 cells, ELISA assay using Fc tagged human SIRPα v2 ECD recombinant protein and SPR analysis using the antigen of 6×His tagged human SIRPα v2 ECD recombinant protein (refer to methods described in Example 3.4, Example 3.3 and Example 4.3). […] In particular, hu035.01 cannot be detected to bind with C57BL/6 mouse SIRPα ECD in ELISA assay possibly due to reduced binding activity (FIG. 5B).

Assay [12] addresses T6, 6×His tagged human SIRPα v2 ECD …. Nature of the assay: SPR (Biacore). As to the method: Anti-SIRPα chimeric antibodies were characterized for binding affinity against human SIRPα v1, human SIRPα v2 and C57BL/6 mouse SIRPα using Biacore (GE). Briefly the antibodies to be tested were captured to CM5 chip (GE) using Human Antibody Capture Kit (GE). The antigens of 6×His tagged human SIRPα v1, human SIRPα v2 and C57BL/6 mouse SIRPα ECD recombinant proteins were serially diluted for multiple doses and injected at 30 μl/min for 180 s. Buffer flow was maintained for dissociation of 400 s. 3 M MgCl₂ was used for chip regeneration. The association and dissociation curves were fit with 1:1 binding model, and the Ka/Kd/KD values for each antibody were calculated.
as §2
The source holds these as a separate data set.

B1: chimeric antibody 050c (antibody, V domains shown)
VH: QIQLVQSGPELKKPGETVKISCKASGYTFTHYSMHWVKQAPGKGLKWMGWINTETAEPTYVDDFKGRFAFSLEASASTAFFQINNLKNEDTATYFCARGGLRQGDYWGQGTTLTVSS
VL: QIVLTQSPPIMSASPGEKVTLTCSATSSVSASYLYWFQQKPGSSPKLWIYSTSNLASGVPARFSGSGSGTSYSLTISNMEPADAASYFCHQWSSYPYTFGGGTKLEIK
As a reminder, the EC50 is the concentration that produces a half-maximal response. Consider B1, for which the EC50 in assay [1] and in assay [2] was 0.27 nM each time.

B2: Antibody 050 (hybridoma antibody) (antibody, V domains shown)
VH: B1 VH
VL: B1 VL
notes: mouse hybridoma antibody
In the case of B2, in assay [3], the EC50 worked out at 0.38 nM.

B3: reference antibody KWAR23 (antibody, V domains shown)
VH: EVQLQQSGAELVKPGASVKLSCTASGFNIKDYYIHWVQQRTEQGLEWIGRIDPEDGETKYAPKFQDKATITADTSSNTAYLHLSSLTSEDTAVYYCARWGAYWGQGTLVTVSS
VL: B1 VL with P9A, T26S, A31S, F37Y, N78S, P81A, A82E, Y97R, G101A, I107L
The term IC50 denotes the concentration that inhibits the measured activity by half. On to B3, for which, in assay [4], the half-inhibitory concentration (IC50) was determined as 1 nM. Further, the results for the 50% effective concentration (EC50) in [3], in assay [1] and in [2] were 0.15 nM, 0.05 nM and 0.05 nM, respectively.

B4: chimeric antibody 022c (antibody, V domains shown)
VH: QIQLVQSGPELKKPGETVKISCKASGYTFTDYAMHWVKQAPGKGLKWMGWKNTETGESTYAEDFKGRFAFFLETSASTAYLQINNVKNEDTATYFCARGGYGSNYVMDYWGQGTSVIVSS
VL: DIQMTQSSSSFSVSLGDRVTITCKASEDIYNRLAWYQQKPGNAPRLLISGATSLETGVPSRFSGSGSGKDYTLSITSLQTEDVATYYCQQYWNSPRTFGGGTKLEIK
Regarding B4, the EC50 in [1] and in [2] was 18.7 nM throughout.

B5: Antibody 022 (hybridoma antibody) (antibody, V domains shown)
VH: B4 VH
VL: B4 VL
notes: mouse hybridoma antibody
Take B5: the EC50 in assay [3] worked out at 0.76 nM.

B6: reference antibody 29-AM4-5 (antibody, V domains shown)
VH: EVQLVESGGGLVQPGGSLRLSCAASGFNISYYFIHWVRQAPGKGLEWVASVYSSFGYTYYADSVKGRFTISADTSKNTAYLQMNSLRAEDTAVYYCARFTFPGLFDGFFGAYLGSLDYWGQGTLVTVSS
VL: DIQMTQSPSSLSASVGDRVTITCRASQSVSSAVAWYQQKPGKAPKLLIYSASSLYSGVPSRFSGSRSGTDFTLTISSLQPEDFATYYCQQAVNWVGALVTFGQGTKVEIK
For B6, the concentration for half-maximal inhibition (IC50) in assay [4] is 3.4 nM. The 50% effective concentration (EC50) in assay [3] came out at 0.22 nM; in assay [1], 0.11 nM; in [2] it was 0.11 nM.

B7: chimeric antibody 035c (antibody, V domains shown)
VH: QIQLVQSGPELRKPGETVKISCKASGYSFTNYAMNWVKQAPGKVLKWMGFINTYTGEPTYADDFKGRFAFSLETSASTAYLQINNLKNEDTATYFCTRTRGYYDFDGGAFDYWGQGTSLTVSS
VL: DIVMTQSQKFMSTSIGDRVSVTCKASQNVGTHLAWYQQKPGQSPKALIFSASYRYIGVPDRFTGSGSGTDFTLTITNVQSEDLAEYFCQQYNTYPLTFGAGTKLELK
One may read the Kd as the concentration at which binding is half-saturated. What is called EC50 (read off the curve) is the concentration needed to bring the measured effect to its halfway point. For the molecule B7, the EC50 amounted to 6.11 nM in [1]; 0.2 nM in [5]; 0.16 nM in [6]; 16.4 nM in assay [7]; 0.13 nM in assay [8]; 0.13 nM in assay [9]. Further, the concentration giving a half-maximal response (EC50) in assay [2] was 6.11 nM. The Kd in assay [10] worked out at 1.39 nM; in assay [12] it was 0.61 nM. Further, the 50% effective concentration (EC50 (read off the curve)) in [11] was ~0.2 µg/mL.

B8: Antibody 035 (hybridoma antibody) (antibody, V domains shown)
VH: B7 VH
VL: B7 VL
notes: mouse hybridoma antibody
As for B8, the EC50 in [3] was 2.22 nM.
